# Experimental data from article PMC3115949.
# B1: GmPT1 (Glycine max) (protein)
# chain: MAGGQLGVLNALDVAKTQWYHFTAIVIAGMGFFTDAYDLFCISLVTKLLGRLYYTDIRNPKPGVLPPNVQAAVTGVALCGTLAGQLFFGWLGDKLGRKRVYGLTLMLMVLCSIASGLSFGDTPKGVMATLCFFRFWLDFGIGGDYPLSATIMSEYANKKTRGSFIAAVFAMQGFGIMAGGIVALIVSSAYDHKYDLPSYKDNPAGSKVDSLDYVWRIILMFGAVPAALTYYWRMKMPETARYTALVAKNAKQAASDMSKVLQVEVEAEEDKLQHMVESENQKYGLFSKEFAKRHGLHLVGTTVTWFLLDIAFYSQNLFQKDIFTAIGWIPPAQDMNAIHEVYRIARAQTLIALCSTVPGYWFTVAFIDIIGRFAIQLMGFFFMTVFMFALAIPYNHWKNHNNIGFVVMYSFTFFFSNFGPNATTFVVPAEIFPARLRSTCHGISAAAGKAGAIVGAFGFLYAAQSTNPNKVDHGYPTGIGVKNSLIVLGVINFFGMVFTLLVPESKGKSLEELSGENEDDGAEAIEMAGSARTVPV
# B2: GmPT2 (Glycine max) (protein)
# chain: MAGGQLGVLNALDVAKTQWYHFTAIVIAGMGFFTDAYDLFCISLVTKLLGRLYYTDITNPKPGVLPPNVQAAVTGVALCGTLAGQLFFGWLGDKLGRKRVYGLTLMLMVVCSVASGLSFGDTPKGVMATLCFFRFWLGFGIGGDYPLSATIMSEYANKKTRGAFIAAVFAMQGFGILAGGIVALIVSSAYDHKYDLPSYKDNPAGSKVDSLDYVWRIILMFGAVPAGLTYYWRMKMPETARYTALVAKNAKQAASDMSKVLQVEVEAEEDKLQHMVESEHQKYGLFSKEFAKRHGLHLVGTTVTWFLLDIAFYSQNLFQKDIFSAIGWIPPAQDMNAIHEVYRIARAQTLIALCSTVPGYWFTVAFIDIMGRFAIQLMGFFFMTVFMFALAIPYNHWKNHNNIGFVVMYSFTFFFSNFGPNATTFVVPAEIFPARLRSTCHGISAAAGKAGAIVGAFGFLYAAQSTNPDKVDHGYPTGIGVKNSLIVLGVINFFGMVFTLLVPESKGKSLEELSGENEDDGAEAIEMAGSARTVPV
# Substrate: O=P(O)(O)O
# Assay: cells, lysate or membranes
# Conditions: labelled compound, whole yeast cells, 5 min, 30 °C, glucose-energized, Pi 50-2000 µM, proton symport, pH of Km assay not stated
row,Protein,Km [mM]
1,B1,6.65
2,B2,6.63
